27 molecules from patent US20260167959A1, “APTAZYME-BASED REGULATABLE GENE EXPRESSION SYSTEMS” (REJUVENATE BIO INC, priority 2022, published 2026) can be followed below.

Positions count from the first letter of the chain named.

First the molecules themselves.
B1: RA445 (nucleic acid)
DNA: GCGCGTCGAGAATACCAGCATCGTCTTGATGCCCTTGGAAGTCTCCTGGATTCGCGGAAACGCGTACATCCAGCTGACGAGTCCCAAATAGGACGAAACGCGC
modifications: expressed or natural sequence
B2: RA449 (nucleic acid)
DNA: GCGCGTCCTGGATTCGCGGAAACGCGTACATCCAGCTGACGAGTCCCAAATAGGACGAAACGCGAGTGATACCAGCATCGTCTTGATGCCCTTGGCAGCACTC
modifications: expressed or natural sequence
B3: RA427 (nucleic acid)
DNA: GCGCGTCCTGCCGGAATACCAGCATCGTCTTGATGCCCTTGGAAGTCCGGGATTCGCGGAAACGCGTACATCCAGCTGACGAGTCCCAAATAGGACGAAACGCGC
modifications: expressed or natural sequence
B4: RA448 (nucleic acid)
DNA: GCGCGCGGAATACCAGCATCGTCTTGATGCCCTTGGAAGTCCGTCCTGGATTCGCGGAAACGCGTACATCCAGCTGACGAGTCCCAAATAGGACGAAACGCGC
modifications: expressed or natural sequence
B5: RA439 (nucleic acid)
DNA: GCGCGTGAGAATACCAGCATCGTCTTGATGCCCTTGGAAGTCTCCCTGGATTCGCGGAAACGCGTACATCCAGCTGACGAGTCCCAAATAGGACGAAACGCGC
modifications: expressed or natural sequence
B6: RA434 (nucleic acid)
DNA: GCGCGTCCAGAATACCAGCATCGTCTTGATGCCCTTGGAAGTCTTGGATTCGCGGAAACGCGTACATCCAGCTGACGAGTCCCAAATAGGACGAAACGCGC
modifications: expressed or natural sequence
B7: RA435 (nucleic acid)
DNA: GCGCGTCCTGGATTCGCGGAAACGCGTACATCCAGCTGACGAGTCCCAAACGGAATACCAGCATCGTCTTGATGCCCTTGGAAGTCCGTAGGACGAAACGCGC
modifications: expressed or natural sequence
B8: RA444 (nucleic acid)
DNA: GCGCGTCCCGGAATACCAGCATCGTCTTGATGCCCTTGGAAGTCCGGCTGGATTCGCGGAAACGCGTACATCCAGCTGACGAGTCCCAAATAGGACGAAACGCGC
modifications: expressed or natural sequence
B9: RA441 (nucleic acid)
DNA: GCGCCCGGAATACCAGCATCGTCTTGATGCCCTTGGAAGTCCGGGTCCTGGATTCGCGGAAACGCGTACATCCAGCTGACGAGTCCCAAATAGGACGAAACGCGC
modifications: expressed or natural sequence
B10: RA432 (nucleic acid)
DNA: GCGCGTCCTGGATTCGCGGAAACGCGTACATCCAGCTGACGAGTCCCACCGGAATACCAGCATCGTCTTGATGCCCTTGGAAGTCCGGAATAGGACGAAACGCGC
modifications: expressed or natural sequence
B11: RA446 (nucleic acid)
DNA: GCGCGTCCTGGATTCCGGAATACCAGCATCGTCTTGATGCCCTTGGAAGTCCGGCGGAAACGCGTACATCCAGCTGACGAGTCCCAAATAGGACGAAACGCGC
modifications: expressed or natural sequence
B12: RA440 (nucleic acid)
DNA: GCGCGTCCTGGATTCGCGGAAACGCGTACATCCAGCTGACGAGTCCCAAATAGGACGAAACGCCGGAATACCAGCATCGTCTTGATGCCCTTGGAAGTCCGGC
modifications: expressed or natural sequence
B13: RA430 (nucleic acid)
DNA: GCGCGTCCTGGATTCGCGGAAACGCGTACATCCAGCTGAGAGAATACCAGCATCGTCTTGATGCCCTTGGAAGTCTCCGAGTCCCAAATAGGACGAAACGCGC
modifications: expressed or natural sequence
B14: RA447 (nucleic acid)
DNA: GCGCGTCCTGGATTCGCGGAAACGCGTACATCCAGCTGACGAGTCCGGAATACCAGCATCGTCTTGATGCCCTTGGAAGTCCCAAATAGGACGAAACGCGC
modifications: expressed or natural sequence
B15: RA431 (nucleic acid)
DNA: GCGCGTCCTGGATTCGCGGAAACGCGTACATCCACGGAATACCAGCATCGTCTTGATGCCCTTGGAAGTCCGGCTGACGAGTCCCAAATAGGACGAAACGCGC
modifications: expressed or natural sequence
B16: RA428 (nucleic acid)
DNA: GCGCGTCCTGGATTCGCGGAAACGCGTACATCCAGCTGACGAGTCCGAGAATACCAGCATCGTCTTGATGCCCTTGGAAGTCTCCAAATAGGACGAAACGCGC
modifications: expressed or natural sequence
B17: RA433 (nucleic acid)
DNA: GCGCGTCCTGGATTCGCGGAAACGCGTACATCCAGCTGACGAGTCCCAAATAGGAAGTGATACCAGCATCGTCTTGATGCCCTTGGCAGCACTCGAAACGCGC
modifications: expressed or natural sequence
B18: RA443 (nucleic acid)
DNA: B17 DNA with A56C, T58G, G59A, C87A, C90T, A91C, T93G
modifications: expressed or natural sequence
B19: RA429 (nucleic acid)
DNA: GCGCGTCCTGGATTCGCGGGGAATACCAGCATCGTCTTGATGCCCTTGGAAGTCCAAACGCGTACATCCAGCTGACGAGTCCCAAATAGGACGAAACGCGC
modifications: expressed or natural sequence
B20: RA426 (nucleic acid)
DNA: GCGCGTCCTGGATTCGCGGAAACGCGTACATCCAGCTGACGAGTCCCAAATAGGACGCCGGAATACCAGCATCGTCTTGATGCCCTTGGAAGTCCGGAAACGCGC
modifications: expressed or natural sequence
B21: RA437 (nucleic acid)
DNA: GCGCGTCCTGGATTCGCGGAAACGCGTACATCCAGCTGACGAGTCCCAAGAATACCAGCATCGTCTTGATGCCCTTGGAAGTCTAATAGGACGAAACGCGC
modifications: expressed or natural sequence
B22: RA438 (nucleic acid)
DNA: GCGCGTCCTGGATTCGCGGAAACGCGTACATCCAGCTGACGAGTCCCAAATAGGACGCGGAATACCAGCATCGTCTTGATGCCCTTGGAAGTCCGAAACGCGC
modifications: expressed or natural sequence
B23: RA436 (nucleic acid)
DNA: GCGCGTCCTGGATTCGCGGAAACGCGTACATCCAGCGGAATACCAGCATCGTCTTGATGCCCTTGGAAGTCCGCTGACGAGTCCCAAATAGGACGAAACGCGC
modifications: expressed or natural sequence
B24: RA442 (nucleic acid)
DNA: GCGCGTCCTGGATTCGCGGAAACGCGTACATCCGGAATACCAGCATCGTCTTGATGCCCTTGGAAGTCCGCAGCTGACGAGTCCCAAATAGGACGAAACGCGC
modifications: expressed or natural sequence
B25: RA043 (nucleic acid)
DNA: GCGCGTCCTCGAGAATACCAGCATCGTCTTGATGCCCTTGGAAGTCTCGGGATTCGCGGAAACGCGTACATCCAGCTGACGAGTCCCAAATAGGACGAAACGCGC
modifications: expressed or natural sequence
B26: RA042 (nucleic acid)
DNA: GCGCGTCCTGGATTCGCGGAAACGCGTACATCCAAGAATACCAGCATCGTCTTGATGCCCTTGGAAGTCTGCTGACGAGTCCCAAATAGGACGAAACGCGC
modifications: expressed or natural sequence
B27: RA044 (nucleic acid)
DNA: GCGGAGAATACCAGCATCGTCTTGATGCCCTTGGAAGTCTCCGTCCTGGATTCGCGGAAACGCGTACATCCAGCTGACGAGTCCCAAATAGGACGAAACGCGC
modifications: expressed or natural sequence

The first series relates to Renilla luciferase RNA. In words: Barcoded aptazyme variant library screen: un-cleaved Renilla luciferase RNA by barcode read counts, HEK293-T cells. Format: cell-based. The note with it: un-cleaved Renilla luciferase RNA by barcode read counts; with 1 mM theophylline (ON) over without theophylline (OFF); HEK293-T cells; triplicate. The essentials: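 Aptazyme variants (seven theophylline aptamers inserted after each T3H48 ribozyme nucleotide, 9-nt barcoded) cloned into the 3′ UTR of Renilla luciferase in psiCHECK-2; cells cultured ± theophylline, in triplicate. RNA and DNA barcodes amplified and sequenced; normalized read counts gave un-cleaved RNA fraction and ON/OFF fold-change.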
In the case of B1, the “Fold change in RNA expression between the ON state and the OFF state” value (“Fold change” for short) was determined as 0.5. For B2, the “Fold change” value came to 0.5. Turning to B3, the “Fold change” value is given as 0.6.

As for B4, the “Fold change” value amounted to 0.5. As for B5, the “Fold change” value came to 0.6. The same measure, in the same setting: for B6 the value was 0.6; for B7, 0.6. On to B8, for which the “Fold change” value is listed as 0.6.

Regarding B9, the “Fold change” value is 0.6. As for B10, the “Fold change” value came to 0.6. As to B11, the “Fold change” value was found to be 0.5.

For B12, the “Fold change” value amounted to 0.6.

Take B13: the “Fold change” value worked out at 0.6. On the same count and under the same terms, for B14 the value was 0.5; for B15, 0.6; for B16, 0.6.

For the molecule B17, the “Fold change” value came out at 0.6. As to B18, the “Fold change” value is recorded as 0.6. In the case of B19, the “Fold change” value is recorded as 0.6.

As for B20, the “Fold change” value came out at 0.6. On the same count and under the same terms, for B21 the value was 0.6; for B22, 0.6. In the case of B23, the “Fold change” value was 0.6. On to B24, for which the “Fold change” value was 0.6.

The same series, now with this note: un-cleaved Renilla luciferase RNA, HEK293-T cells cultured with 1 mM theophylline (ON) over without theophylline (OFF); barcode read counts, triplicate.
Consider B25, for which the “Fold change” value amounted to 2.1 fold. B26: the “Fold change” value is reported as 2.1 fold. In the case of B27, the “Fold change” value was found to be 2.1 fold.
